Reference: patent US20260176352A1 (BIRD ROCK BIO, published 2026)
Where a chain is given by its changes, count along the chain named. Where “and” joins values, the source holds several entries; their conditions need not be identical. Equal entries are not always repeated.

How the values were obtained:
[1] = target: T1, A138 iCAPS (CB1 with ICL3 native sequence replaced with protein 1 sequence) (human, UniProt P21554 99-414); assay: ELISA, purified IgG on A138 CB1 iCAPS
T1 construct: The insert stands inside the chain in place of ICL3
Method: (§1) Purified IgG was tested for binding to purified CB1 receptor (CB1 Conformation Antigen Presenting System (iCAPS)) by ELISA. Non-biotinylated antigens (e.g. empty iCAPS) were coated directly on Maxisorp plates. The primary antibodies were purified IgGs with 1:3 serial dilutions, incubated on the plate for 1 hour. After 3 rounds of washing with PBST, secondary antibodies HRP goat anti-mouse IgG (Abmart) or HRP goat anti-human IgG (Sigma), depending on the species of the IgGs were added and incubated for another hour. The plates were washed three times with PBST, then developed with TMB (Biopanda). HCl was added to the plates to stop the reaction. Absorbance at 450 nm was read on Emax precision microplate reader (Molecular Devices).

[2] = target: T2, A139 iCAPS (CB1 with ICL3 native sequence replaced with BRIL) (human, UniProt P21554 99-414); assay: ELISA, purified IgG on A139 CB1 iCAPS
T2 construct: The insert stands inside the chain in place of ICL3
Method: as §1

[3] = target: T3, native full length human CB1 receptor (cannabinoid 1 receptor) (human, UniProt P21554 1-472); assay: binding to CB1 cells (FIG. 12); unlabeled P4B5
T3 construct: whole, on cells; also called A156; Native human CB1 TRex CHO A156

[4] = target: T3, native full length human CB1 receptor …; assay: binding to CB1 cells (FIG. 12); labeled with Vivotag 680 XL
[5] = target: T3, native full length human CB1 receptor …; assay: cell-based or functional assay
[6] = target: T3, native full length human CB1 receptor …; assay: cell-based or functional assay; remark: listed apart in the source
[7] = target: T3, native full length human CB1 receptor …; assay: cell-based or functional assay; remark: listed apart in the source
[8] = target: T4, TRex CHO A56 over-expressed CB1 (CB1 T210A/fusion partner) (UniProt P21554 1-472); assay: flow cytometry, TRexCHO A56 cells
T4 construct: whole, on cells; The fusion partner stands inside the CB1 chain in place of ICL3, not at its end; also called Trex-CHO CB1 T210A/fusion partner; not shown: fusion partner that replaces ICL3
Method: (§2) After being washed with 200 μl of FACS buffer twice, cells were incubated with PE conjugated anti-human secondary antibody (Southern Biotech) for 30 minutes on ice. Cells were washed with 200 μl of FACS buffer twice and transferred to BD Falcon 5 ml tube and analyzed by flow cytometry (BD FACScalibur).

[9] = target: T3, native full length human CB1 receptor …; assay: flow cytometry, TRexCHO A156 cells
Method: as §2

[10] = target: T4, TRex CHO A56 over-expressed CB1 (CB1 …); assay: flow cytometry, A56 cells; batch 1.01 mg/ml
Method: (§3) To further assess TRex CHO parental cells, TRex CHO A56 overexpressed CB1, Native human CB1 TRex CHO A156, 5HT2B, Mouse CB1 and human CB2 were used to examine the specificity of IgG binding. 100 μl of 1×10⁶ cells/ml of cells were incubated with primary antibody IgGs in 3-fold serial dilutions starting from 1 μM to 0.5 nM for 30 minutes on ice. After being washed with 200 μl of FACS buffer twice, cells were incubated with secondary antibody for 30 minutes on ice. Cells were washed with 200 μl of FACS buffer twice and transferred to BD Falcon 5 ml tube and analyzed by FACS.
(§4) For selected binders, full binding curves were generated on CB1 receptor by testing a range of concentrations. Three-fold serial dilutions from 1 μM to 0.1 μM were prepared. Selectivity was determined by measuring binding to cells expressing 5HT2B or CB2, relative to binding to A156 (native human CB1 receptor expressing) or A56 (overexpressed-CB1 receptor with the T210A modification and ICL3 replacement with fusion partner) by flow cytometry. […] PE-conjugated anti-mouse (for detection of anti-CB2) and PE conjugated anti-human antibodies were used to detect CB2 and 5HT2B, respectively.

[11] = target: T4, TRex CHO A56 over-expressed CB1 (CB1 …); assay: flow cytometry, A56 cells; batch 1.25 mg/ml
Method: as §3, §4

[12] = target: T3, native full length human CB1 receptor …; assay: flow cytometry, A156 cells; batch 0.49 mg/ml
Method: as §3, §4

[13] = target: T3, native full length human CB1 receptor …; assay: flow cytometry, A156 cells; batch 1.01 mg/ml
Method: as §3, §4

[14] = target: T3, native full length human CB1 receptor …; assay: flow cytometry, A156 cells; batch 1.25 mg/ml
Method: as §3, §4

[15] = target: T3, native full length human CB1 receptor …; assay: flow cytometry, IgG titrated on cells
Method: as §3, §4

[16] = target: T4, TRex CHO A56 over-expressed CB1 (CB1 …); assay: flow cytometry, IgG titrated on cells
Method: as §3, §4

[17] = target: 5HT2B (expression cell line) (Homo sapiens (Human), UniProt P41595 1-481); assay: flow cytometry, IgG titrated on cells
Method: as §3, §4

[18] = target: T3, native full length human CB1 receptor …; assay: flow cytometry, TRex-CHO human CB1 cells; mean ± SD
Method: (§5) TRex CHO parental cells, and TRex-CHO cells stably transfected with tetracycline inducible human CB1, human CB2 or mouse CB1 expression constructs were harvested. […] Cells were then centrifuged at 4° C. at 1600 rpm for 3 minutes; supernatant was aspirated and cells were washed with 200 μL FACS buffer. The washing procedure was repeated twice. After the final wash, cells were re-suspended in FACS buffer containing PE-conjugated anti-human Fc secondary antibody (1:200 dilutions) and incubated at 4° C. for 30 minutes. Cells were washed with 200 μL FACS buffer twice and analyzed by flow cytometry (Guava). Data analysis and measurement of binding affinity (KD) was performed using GraphPad Prism software.

[19] = target: T3, native full length human CB1 receptor …; assay: flow cytometry, TRex-CHO human CB1 cells; mean of batch 1
Method: as §5

[20] = target: T3, native full length human CB1 receptor …; assay: flow cytometry, TRex-CHO human CB1 cells; mean of batch 2
Method: as §5

[21] = target: T3, native full length human CB1 receptor …; assay: flow cytometry, TRex-CHO human CB1 cells; mean of batch 3
Method: as §5

mouse CB1 [22] = target: T5, mouse CB1 (mouse, UniProt P47746 1-473); assay: flow cytometry on TRex-CHO mouse CB1 cells, lower panel
T5 construct: whole, on cells; also called TRexCHO Mouse CB1
Method: as §2

human CB2 [23] = target: T6, human CB2 (human, UniProt P34972 1-360); assay: flow cytometry on TRex-CHO human CB2 cells, middle panel
T6 construct: whole, on cells; also called TRexCHO Human CB2
Method: as §2

[24] = target: T3, native full length human CB1 receptor …; assay: flow cytometry on TRex-CHO cells with tetracycline inducible human CB1
Method: as §5

[25] = target: T3, native full length human CB1 receptor …; assay: flow cytometry, A156 cells; batch 1.01 mg/ml; A156 cells; batch 1.01 mg/ml, first of two such rows
Method: as §3, §4

mouse CB1 [26] = target: T5, mouse CB1; assay: flow cytometry on cells expressing the target
[27] = target: T4, TRex CHO A56 over-expressed CB1 (CB1 …); assay: flow cytometry, A56 cells; batch 5.9 mg/ml
Method: as §3, §4

[28] = target: T3, native full length human CB1 receptor …; assay: flow cytometry, A156 cells; batch 5.9 mg/ml
Method: as §3, §4

[29] = target: T4, TRex CHO A56 over-expressed CB1 (CB1 …); assay: flow cytometry, A56 cells; batch 4.85 mg/ml
Method: as §3, §4

[30] = target: T4, TRex CHO A56 over-expressed CB1 (CB1 …); assay: flow cytometry, A56 cells; batch 5.28 mg/ml
Method: as §3, §4

[31] = target: T4, TRex CHO A56 over-expressed CB1 (CB1 …); assay: flow cytometry, A56 cells; batch 5.78 mg/ml
Method: as §3, §4

[32] = target: T3, native full length human CB1 receptor …; assay: flow cytometry, A156 cells; batch 4.85 mg/ml
Method: as §3, §4

[33] = target: T3, native full length human CB1 receptor …; assay: flow cytometry, A156 cells; batch 5.28 mg/ml
Method: as §3, §4

[34] = target: T3, native full length human CB1 receptor …; assay: flow cytometry, A156 cells; batch 5.78 mg/ml
Method: as §3, §4

human CB2 [35] = target: T6, human CB2; assay: flow cytometry, IgG titrated on cells
Method: as §3, §4

5HT2B (expression cell line), sequence (P41595 whole entry): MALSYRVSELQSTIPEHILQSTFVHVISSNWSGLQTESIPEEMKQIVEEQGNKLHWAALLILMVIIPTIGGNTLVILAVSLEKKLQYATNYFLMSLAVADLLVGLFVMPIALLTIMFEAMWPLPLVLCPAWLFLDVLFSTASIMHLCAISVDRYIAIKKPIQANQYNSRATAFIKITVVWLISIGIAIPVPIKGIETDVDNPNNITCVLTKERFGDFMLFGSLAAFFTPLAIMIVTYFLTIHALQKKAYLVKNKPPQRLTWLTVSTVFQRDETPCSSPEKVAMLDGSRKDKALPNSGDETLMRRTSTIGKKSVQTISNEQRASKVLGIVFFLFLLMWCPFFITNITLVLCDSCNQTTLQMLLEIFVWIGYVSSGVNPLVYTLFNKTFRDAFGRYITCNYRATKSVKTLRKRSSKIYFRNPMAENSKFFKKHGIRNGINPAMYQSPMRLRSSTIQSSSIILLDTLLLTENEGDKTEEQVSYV
T5 sequence (P47746 whole entry): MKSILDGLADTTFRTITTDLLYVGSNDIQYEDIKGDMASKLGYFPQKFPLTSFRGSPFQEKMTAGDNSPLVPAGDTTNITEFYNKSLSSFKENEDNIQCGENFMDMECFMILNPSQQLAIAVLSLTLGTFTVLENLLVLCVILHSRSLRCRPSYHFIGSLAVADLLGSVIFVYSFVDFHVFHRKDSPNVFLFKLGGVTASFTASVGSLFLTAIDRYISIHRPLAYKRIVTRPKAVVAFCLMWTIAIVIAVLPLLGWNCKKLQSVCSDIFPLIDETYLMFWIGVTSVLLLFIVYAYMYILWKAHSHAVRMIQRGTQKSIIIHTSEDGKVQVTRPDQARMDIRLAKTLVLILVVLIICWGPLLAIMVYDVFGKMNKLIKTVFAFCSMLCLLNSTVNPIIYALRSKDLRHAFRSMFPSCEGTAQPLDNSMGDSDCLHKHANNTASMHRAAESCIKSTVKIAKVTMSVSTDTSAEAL
T6 sequence (P34972 whole entry): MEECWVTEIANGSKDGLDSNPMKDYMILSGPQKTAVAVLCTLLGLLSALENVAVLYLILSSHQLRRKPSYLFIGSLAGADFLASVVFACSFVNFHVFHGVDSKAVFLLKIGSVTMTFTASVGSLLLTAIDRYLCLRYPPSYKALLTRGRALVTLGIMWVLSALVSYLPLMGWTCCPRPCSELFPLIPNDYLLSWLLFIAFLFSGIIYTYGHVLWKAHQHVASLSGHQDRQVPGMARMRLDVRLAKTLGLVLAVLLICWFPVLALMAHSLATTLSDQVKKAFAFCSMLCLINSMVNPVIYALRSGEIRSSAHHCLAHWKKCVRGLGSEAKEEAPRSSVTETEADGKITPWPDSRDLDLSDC

B1: PA2LR3-P4B5 (chimeric) (antibody, human IgG1, kappa, V domains shown)
VH: EVQLQQSGAELVRPGSSVKISCKASGYAFSYYWMNWVKQRPGQGLEWIGQIYPGDGDTNYSGRFKGKATLTADKSSSTAYIQLSSLTSEDSAVYFCARSHGNYFPYWGQGTLVTVSA
VL: DIVLNQSPAIMSASLGERVTMTCTASSSVSSSYLHWYQQKPGSSPKLWIYSTSNLASGVPARFSGSGSGTSYSLTISSMEAEDAATYYCHQYHRSPLTFGAGTKLEIKR
[1]
  EC50: 0.24 nM
[2]
  EC50: 0.24 nM
[3]
  EC50: 60.5 nM

B2: P4B5 antibody labeled with Vivotag 680 XL (antibody, human IgG1, kappa, V domains shown)
VH: B1 VH
VL: B1 VL
modifications: Vivotag 680 XL label, site and chain not stated
notes: also called Labeled P4B5
[4]
  EC50: 57.8 nM

B3: PA13R3-P1C4 (chimeric) IgG (antibody, V domains shown)
VH: B1 VH with S16V, A28E, D57E, N59K, S61N, R63K, S77N, I81M, F104L
VL: B1 VL with N5T, L97P, I107L
notes: Phage-derived mouse variable regions on human constant regions; also called Chimeric P1C4-IgG; PA13R3-P1C4 IgG
[5]
  IC50, cAMP functional antagonist assay: 90 nM
[6]
  IC50 (nM), cAMP assay: 93 nM
[7]
  cAMP IC50 (nM) Mean of Batch 1 [n]: 120 nM
  cAMP IC50 (nM) Mean of Batch 2 [n]: 155 nM
[8]
  Kd: 10.5 nM
[9]
  Kd: 25 nM
[1]
  EC50: 0.172 nM
[2]
  EC50: 0.175 nM
[10]
  Kd: 27.3 nM
[11]
  Kd: 50.6 nM
[12]
  Kd: 187 nM
[13]
  Kd: 171 nM
[14]
  Kd: 72.6 nM
[15]
  EC50 (read off the curve): ~30 nM
[16]
  EC50 (read off the curve): ~20 nM
[17]
  binding result: no binding (tested: 1000 nM)
[18]
  Kd: 103 nM
[19]
  Kd: 92 nM
[20]
  Kd: 116 nM
[21]
  Kd: 96 nM
Mouse CB1 [22]
  binding result: no binding (tested: about 300 nM (last point))
Human CB2 [23]
  binding result: no binding (tested: about 300 nM (last point))
[24]
  EC50 (read off the curve): ~60 nM and ~40 nM
[25]
  Kd: 40.5 nM

B4: 36E12B6C2 IgG (hybridoma-derived) (antibody, V domains shown)
VH: QVQLQQSGAELVRPGSSVKISCKASGYEFSYYWMNWVKQRPGQGLQWIGQIYPGDGDTNYNGKFKGKATLTADKSSSTAYMHLTSLTSEDSAVYFCARSGGNPFAFWGQGTLVTVSA
VL: DIQMTQTSSSLSASLGDRVTFSCRASQDISNYLNWYQQKPDGTVKLLIYYTSRLHSGVTSRFRGSGSGTDYSLTISNLEQEDVATYFCQQGHTLPWSFGGGTKLEIKR
Mouse CB1 [26]
  binding result: no binding (tested: 1 µM)
[27]
  Kd: 60.2 nM
[28]
  Kd: 26 nM
[29]
  Kd: 29.3 nM
[30]
  Kd: 51.9 nM
[31]
  Kd: 69.4 nM
[32]
  Kd: 64 nM
[33]
  Kd: 27.7 nM
[34]
  Kd: 151 nM
[15]
  EC50 (read off the curve): ~60 nM
[16]
  EC50 (read off the curve): ~40 nM
Human CB2 [35]
  binding result: no binding (tested: 1000 nM)
[17]
  binding result: no binding (tested: 1000 nM)
